# Data taken from patent publication US9770469B2, “Methods of reprogramming renal cells” (Tel HaShomer Medical Research Infrastructure and Services …, priority 2009, dated 2017).
# Tests used:
# human adult kidney cells = assay: qRT-PCR after Wnt antagonists DKK1/sFRP1 with or without VPA; assay type: cell-based; settings: DKK1 3 μg/ml or sFRP1 7 μg/ml 72 h; for Osr1 expression, Wnt antagonist combined with VPA / Six2 expression, Wnt antagonist combined with VPA: VPA 4 mM last 24 h; for Osr1 expression, Wnt antagonist alone: no VPA
# Procedure: (§1) Cell Treatment: Cells were treated for 24 hours with growth medium supplemented with 1, 2, or 4 mM VPA (Sigma) or with H2O for control sample. Otherwise, cells were treated for 24 hours with growth medium supplemented with the combination of 75 μM TSA (Sigma) and 250 μM 5-AZA (Sigma) or with 100% Ethanol and Acetic Acid (Acetic Acid: H2O 1:1) for control sample. […] 24 hours prior to harvesting VPA at a concentration of 4 mM was added to the cell culture.
# (§2) Quantitative Reverse Transcription-PCR: Total RNA from kidney tissue cultured cells was isolated using the TRIZOL reagent (Invitrogen) according to the manufacturer's protocols. cDNA synthesis was carried out using Verso kit (Thermo scientific) with Random primers. Quantitative RT PCR was performed using an ABI7900HT sequence detection system (Perkin-Elmer/Applied Biosystems) in the presence of SYBR green (SYBR green PCR kit; Qiagen). Each analysis reaction was performed in duplicates or triplicates. GapDH was used as an endogenous control throughout all experimental analyses. Analysis was performed using the −ΔΔCt method, which determines fold changes in gene expression relative to a comparator sample.
# human fetal kidney cells = assay: as above; assay type: cell-based
# Procedure: as §1, §2
# [1] = fetal kidney cells, DKK1 3 μg/ml or sFRP1 7 μg/ml 72 h, VPA 4 mM last 24 h
# [2] = fetal kidney cells, DKK1 3 μg/ml or sFRP1 7 μg/ml 72 h, no VPA
molecule,measurement,setting,value
"DKK1: Wnt pathway antagonist (R&D systems) (protein, UniProt O94907 32-266, looked up) Dickkopf-related protein 1: TLNSVLNSNAIKNLPPPLGGAAGHPGSAVSAAPGILYPGGNKYQTIDNYQPYPCAEDEECGTDEYCASPTRGGDAGVQICLACRKRRKRCMRHAMCCPGNYCKNGICVSSDQNHFRGEIEETITESFGNDHSTLDGYSRRTTLSSKMYHTKGQEGSVCLRSSDCASGLCCARHFWSKICKPVLKEGQVCTKHRRKGSHGLEIFQRCYCGEGLSCRIQKDHHQASNSSRLHTCQRH","Osr1 expression, Wnt antagonist combined with VPA",human adult kidney cells,synergistic affect
same,"Six2 expression, Wnt antagonist combined with VPA",human adult kidney cells,synergistic effect
same,"Osr1 expression, Wnt antagonist alone",human adult kidney cells,little effect
same,"Osr1 expression, Wnt antagonist combined with VPA",human fetal kidney cells; [1],synergistic affect
same,"Osr1 expression, Wnt antagonist alone",human fetal kidney cells; [2],little effect
"sFRP1: Wnt pathway antagonist (R&D systems) (protein, UniProt Q8N474 32-314, looked up) Secreted frizzled-related …: SEYDYVSFQSDIGPYQSGRFYTKPPQCVDIPADLRLCHNVGYKKMVLPNLLEHETMAEVKQQASSWVPLLNKNCHAGTQVFLCSLFAPVCLDRPIYPCRWLCEAVRDSCEPVMQFFGFYWPEMLKCDKFPEGDVCIAMTPPNATEASKPQGTTVCPPCDNELKSEAIIEHLCASEFALRMKIKEVKKENGDKKIVPKKKKPLKLGPIKKKDLKKLVLYLKNGADCPCHQLDNLSHHFLIMGRKVKSQYLLTAIHKWDKKNKEFKNFMKKMKNHECPTFQSVFK","Osr1 expression, Wnt antagonist combined with VPA",human adult kidney cells,synergistic affect
same,"Six2 expression, Wnt antagonist combined with VPA",human adult kidney cells,synergistic effect
same,"Osr1 expression, Wnt antagonist alone",human adult kidney cells,little effect
same,"Six2 expression, Wnt antagonist alone","human fetal kidney cells; FK cells, DKK1 3 μg/ml or sFRP1 7 μg/ml 72 h, no VPA",elevated Six2 levels
same,"Osr1 expression, Wnt antagonist combined with VPA",human fetal kidney cells; [1],synergistic affect
same,"Osr1 expression, Wnt antagonist alone",human fetal kidney cells; [2],little effect
same,"Six2 expression, Wnt antagonist combined with VPA","human fetal kidney cells; fetal kidney cells, sFRP1 7 μg/ml 72 h, VPA 4 mM last 24 h",synergistic effect
